In US20140087995A1 (published 2014):
Changes are numbered by the printed parent chain. Like-named read-outs stand apart in the source and are kept apart here. Numbered stars: 1 amine (or outer) side, 2 acyl side, 3 side chain; on linkers, the order of the positions; unused ones are H or OH. Bridge positions count the residues as written; N and C are the ends. Side chains are listed from the residue outwards. Ends that are not written are not given here. * marks the point of attachment. C20 diacid = O=C(O)CCCCCCCCCCCCCCCCCCC(=O)*; γGlu = O=C(O)[C@H](CCC(=O)[*:2])N[*:1]; AEEA = NCCOCCOCC(=O)O

T1: human calcitonin receptor (human, UniProt P30988 25-474)
T1 sequence (looked up): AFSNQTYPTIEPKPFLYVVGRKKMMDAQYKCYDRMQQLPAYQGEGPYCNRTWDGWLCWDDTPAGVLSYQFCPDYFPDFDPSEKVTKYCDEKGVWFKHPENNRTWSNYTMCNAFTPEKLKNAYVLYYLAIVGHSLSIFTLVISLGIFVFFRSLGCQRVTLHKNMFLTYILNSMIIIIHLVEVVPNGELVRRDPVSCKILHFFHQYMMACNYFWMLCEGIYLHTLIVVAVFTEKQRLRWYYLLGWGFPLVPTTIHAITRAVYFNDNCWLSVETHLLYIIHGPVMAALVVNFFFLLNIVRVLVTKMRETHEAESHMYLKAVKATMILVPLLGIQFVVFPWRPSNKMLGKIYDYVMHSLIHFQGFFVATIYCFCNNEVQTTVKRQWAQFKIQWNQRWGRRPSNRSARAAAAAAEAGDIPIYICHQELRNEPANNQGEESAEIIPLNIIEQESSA

T2: human amylin 3(a) receptor (human calcitonin receptor co-expressed with RAMP-3) (human, UniProt P30988 25-474; O60896 24-148, limits assumed)
T2 sequence (looked up) 1: T1 sequence (looked up)
T2 sequence (looked up) 2: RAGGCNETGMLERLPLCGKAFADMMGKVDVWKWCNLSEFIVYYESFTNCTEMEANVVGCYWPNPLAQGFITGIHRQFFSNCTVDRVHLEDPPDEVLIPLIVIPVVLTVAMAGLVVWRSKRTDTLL

T3: human calcitonin receptor (human, UniProt P30988 25-474)
T3 sequence (looked up): T1 sequence (looked up)

B1: N{-1}-[(4S)-4-carboxy-4-(19-carboxynonadecanoylamino)butanoyl]-Gly[Arg1,His14,Arg17,Pro21,Pro27]-h-amylin (peptide)
peptide: {C20 diacid-γGlu}-GRCNTATCATQRLAHFLRHSSPNFGAIPSSTNVGSNTY-NH2
modifications: disulfide 3-8
SMILES: CC[C@H](C)[C@H](NC(=O)[C@H](C)NC(=O)CNC(=O)[C@H](Cc1ccccc1)NC(=O)[C@H](CC(N)=O)NC(=O)[C@@H]1CCCN1C(=O)[C@H](CO)NC(=O)[C@H](CO)NC(=O)[C@H](Cc1c[nH]cn1)NC(=O)[C@H](CCCNC(=N)N)NC(=O)[C@H](CC(C)C)NC(=O)[C@H](Cc1ccccc1)NC(=O)[C@H](Cc1c[nH]cn1)NC(=O)[C@H](C)NC(=O)[C@H](CC(C)C)NC(=O)[C@H](CCCNC(=N)N)NC(=O)[C@H](CCC(N)=O)NC(=O)[C@@H](NC(=O)[C@H](C)NC(=O)[C@@H]1CSSC[C@H](NC(=O)[C@H](CCCNC(=N)N)NC(=O)CNC(=O)CC[C@H](NC(=O)CCCCCCCCCCCCCCCCCCC(=O)O)C(=O)O)C(=O)N[C@@H](CC(N)=O)C(=O)N[C@@H]([C@@H](C)O)C(=O)N[C@@H](C)C(=O)N[C@@H]([C@@H](C)O)C(=O)N1)[C@@H](C)O)C(=O)N1CCC[C@H]1C(=O)N[C@@H](CO)C(=O)N[C@@H](CO)C(=O)N[C@H](C(=O)N[C@@H](CC(N)=O)C(=O)N[C@H](C(=O)NCC(=O)N[C@@H](CO)C(=O)N[C@@H](CC(N)=O)C(=O)N[C@H](C(=O)N[C@@H](Cc1ccc(O)cc1)C(N)=O)[C@@H](C)O)C(C)C)[C@@H](C)O
notes: also called compound 99
B2: N^α1-[2-[2-[2-[[2-[2-[2-[[(4S)-4-carboxy-4-(19-carboxynonadecanoylamino)butanoyl]amino]ethoxy]ethoxy]acetyl]amino]ethoxy]ethoxy]acetyl]-[Arg17,Pro21,Pro27]-h-am … (peptide)
peptide: KCNTATCATQRLANFLRHSSPNFGAIPSSTNVGSNTY
modifications: N-terminal alpha-amino acylated with C20 diacid-gGlu-2xOEG; Cys2-Cys7 disulfide; C-terminal amide
notes: analogue of human amylin; also called compound 24
B3: N^α1-[2-[2-[2-[[2-[2-[2-[[(4S)-4-carboxy-4-(19-carboxynonadecanoylamino)butanoyl]amino]ethoxy]ethoxy]acetyl]amino]ethoxy]ethoxy]acetyl]-[Glu14,Arg17,Pro21,Pro27 … (peptide)
peptide: B2 peptide with N14E
modifications: N-terminal alpha-amino acylated with C20 diacid-gGlu-2xOEG; Cys2-Cys7 disulfide; C-terminal amide
notes: analogue of human amylin; also called compound 19
B4: N^α1-[(4S)-4-carboxy-4-(19-carboxynonadecanoylamino)butanoyl]-[Arg17,Pro21,Pro27,Arg34]-h-amylin (peptide)
peptide: B2 peptide with S34R
modifications: N-terminal alpha-amino acylated with C20 diacid-gGlu; Cys2-Cys7 disulfide; C-terminal amide
notes: analogue of human amylin; also called compound 39
B5: N^α1-[(4S)-4-carboxy-4-(19-carboxynonadecanoylamino)butanoyl]-[Arg17,Pro21,Pro27,His34]-h-amylin (peptide)
peptide: B2 peptide with S34H
modifications: N-terminal alpha-amino acylated with C20 diacid-gGlu; Cys2-Cys7 disulfide; C-terminal amide
notes: analogue of human amylin; also called compound 40
B6: N^α1-[(4S)-4-carboxy-4-(19-carboxynonadecanoylamino)butanoyl]-[His14,Arg17,Pro21,Pro27,Glu35]-h-amylin (peptide)
peptide: {C20 diacid-γGlu}-KCNTATCATQRLAHFLRHSSPNFGAIPSSTNVGSETY-NH2
modifications: disulfide 2-7
SMILES: CC[C@H](C)[C@H](NC(=O)[C@H](C)NC(=O)CNC(=O)[C@H](Cc1ccccc1)NC(=O)[C@H](CC(N)=O)NC(=O)[C@@H]1CCCN1C(=O)[C@H](CO)NC(=O)[C@H](CO)NC(=O)[C@H](Cc1c[nH]cn1)NC(=O)[C@H](CCCNC(=N)N)NC(=O)[C@H](CC(C)C)NC(=O)[C@H](Cc1ccccc1)NC(=O)[C@H](Cc1c[nH]cn1)NC(=O)[C@H](C)NC(=O)[C@H](CC(C)C)NC(=O)[C@H](CCCNC(=N)N)NC(=O)[C@H](CCC(N)=O)NC(=O)[C@@H](NC(=O)[C@H](C)NC(=O)[C@@H]1CSSC[C@H](NC(=O)[C@H](CCCCN)NC(=O)CC[C@H](NC(=O)CCCCCCCCCCCCCCCCCCC(=O)O)C(=O)O)C(=O)N[C@@H](CC(N)=O)C(=O)N[C@@H]([C@@H](C)O)C(=O)N[C@@H](C)C(=O)N[C@@H]([C@@H](C)O)C(=O)N1)[C@@H](C)O)C(=O)N1CCC[C@H]1C(=O)N[C@@H](CO)C(=O)N[C@@H](CO)C(=O)N[C@H](C(=O)N[C@@H](CC(N)=O)C(=O)N[C@H](C(=O)NCC(=O)N[C@@H](CO)C(=O)N[C@@H](CCC(=O)O)C(=O)N[C@H](C(=O)N[C@@H](Cc1ccc(O)cc1)C(N)=O)[C@@H](C)O)C(C)C)[C@@H](C)O
notes: analogue of human amylin; also called compound 30
B7: N^ε1-[2-[2-[2-[[2-[2-[2-[[(4S)-4-carboxy-4-(19-carboxynonadecanoylamino)butanoyl]amino]ethoxy]ethoxy]acetyl]amino]ethoxy]ethoxy]acetyl]-[Arg17,Pro21,Pro27,Glu35 … (peptide)
peptide: K([AEEA-AEEA-γGlu-C20 diacid])CNTATCATQRLANFLRHSSPNFGAIPSSTNVGSETY-NH2
modifications: disulfide 2-7; N-terminus assumed
SMILES: CC[C@H](C)[C@H](NC(=O)[C@H](C)NC(=O)CNC(=O)[C@H](Cc1ccccc1)NC(=O)[C@H](CC(N)=O)NC(=O)[C@@H]1CCCN1C(=O)[C@H](CO)NC(=O)[C@H](CO)NC(=O)[C@H](Cc1c[nH]cn1)NC(=O)[C@H](CCCNC(=N)N)NC(=O)[C@H](CC(C)C)NC(=O)[C@H](Cc1ccccc1)NC(=O)[C@H](CC(N)=O)NC(=O)[C@H](C)NC(=O)[C@H](CC(C)C)NC(=O)[C@H](CCCNC(=N)N)NC(=O)[C@H](CCC(N)=O)NC(=O)[C@@H](NC(=O)[C@H](C)NC(=O)[C@@H]1CSSC[C@H](NC(=O)[C@@H](N)CCCCNC(=O)COCCOCCNC(=O)COCCOCCNC(=O)CC[C@H](NC(=O)CCCCCCCCCCCCCCCCCCC(=O)O)C(=O)O)C(=O)N[C@@H](CC(N)=O)C(=O)N[C@@H]([C@@H](C)O)C(=O)N[C@@H](C)C(=O)N[C@@H]([C@@H](C)O)C(=O)N1)[C@@H](C)O)C(=O)N1CCC[C@H]1C(=O)N[C@@H](CO)C(=O)N[C@@H](CO)C(=O)N[C@H](C(=O)N[C@@H](CC(N)=O)C(=O)N[C@H](C(=O)NCC(=O)N[C@@H](CO)C(=O)N[C@@H](CCC(=O)O)C(=O)N[C@H](C(=O)N[C@@H](Cc1ccc(O)cc1)C(N)=O)[C@@H](C)O)C(C)C)[C@@H](C)O
notes: analogue of human amylin; also called compound 25
B8: N^ε1-[2-[2-[2-[[(4S)-4-carboxy-4-(19-carboxynonadecanoylamino)butanoyl]amino]ethoxy]ethoxy]acetyl]-[Ala14,Arg17,Pro21,Pro27,Pro31]-h-amylin (peptide)
peptide: K([AEEA-γGlu-C20 diacid])CNTATCATQRLAAFLRHSSPNFGAIPSSTPVGSNTY-NH2
modifications: disulfide 2-7; N-terminus assumed
SMILES: CC[C@H](C)[C@H](NC(=O)[C@H](C)NC(=O)CNC(=O)[C@H](Cc1ccccc1)NC(=O)[C@H](CC(N)=O)NC(=O)[C@@H]1CCCN1C(=O)[C@H](CO)NC(=O)[C@H](CO)NC(=O)[C@H](Cc1c[nH]cn1)NC(=O)[C@H](CCCNC(=N)N)NC(=O)[C@H](CC(C)C)NC(=O)[C@H](Cc1ccccc1)NC(=O)[C@H](C)NC(=O)[C@H](C)NC(=O)[C@H](CC(C)C)NC(=O)[C@H](CCCNC(=N)N)NC(=O)[C@H](CCC(N)=O)NC(=O)[C@@H](NC(=O)[C@H](C)NC(=O)[C@@H]1CSSC[C@H](NC(=O)[C@@H](N)CCCCNC(=O)COCCOCCNC(=O)CC[C@H](NC(=O)CCCCCCCCCCCCCCCCCCC(=O)O)C(=O)O)C(=O)N[C@@H](CC(N)=O)C(=O)N[C@@H]([C@@H](C)O)C(=O)N[C@@H](C)C(=O)N[C@@H]([C@@H](C)O)C(=O)N1)[C@@H](C)O)C(=O)N1CCC[C@H]1C(=O)N[C@@H](CO)C(=O)N[C@@H](CO)C(=O)N[C@H](C(=O)N1CCC[C@H]1C(=O)N[C@H](C(=O)NCC(=O)N[C@@H](CO)C(=O)N[C@@H](CC(N)=O)C(=O)N[C@H](C(=O)N[C@@H](Cc1ccc(O)cc1)C(N)=O)[C@@H](C)O)C(C)C)[C@@H](C)O
notes: analogue of human amylin; also called compound 72

Tests used:
Assay in all cases: cell-based or functional assay
[1] = target: T1, human calcitonin receptor
[2] = target: T2, human amylin 3(a) receptor (human …)
[3] = target: T3, human calcitonin receptor; remark: listed apart in the source

| Binder | hCTR funct. EC50 [3] [nM] | also measured |
| --- | --- | --- |
| B1 | – | Ratio hCT/hAmylin funct. [1]: 10; hCTR funct. EC50 [1]: 0.818 nM; hAmylin-R funct. EC50 [2]: 0.082 nM |
| B2 | 10 | – |
| B3 | 5.32 | – |
| B4 | 2.52 | – |
| B5 | 2.68 | – |
| B6 | 1.68 | Ratio hCT/hAmylin funct. [3]: 12.6 |
| B7 | 10 | – |
| B8 | 4.76 | – |
